Tests used:
[1] = system: K4 kissing-loop RNA reporter; assay: apparent KD of K4 kissing-loop reporter; higher = weaker reporter binding; conditions: Eterna round: R107;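 also: bound reporter read as fluorescence of individual clusters on recovered sequencing chips by microscopy, with normalized cluster intensities fitted with a binding model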
Description: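 RNA-MaP round R107: designed RNA switches with theophylline, tryptophan, arginine or FMN aptamers are transcribed on-chip within common flanks. They are titrated with a labelled K4 kissing-loop RNA reporter in RNA-MaP buffer (100 mM Tris pH 7.5, 80 mM KCl, 4 mM MgCl2), without ligand or with the indicated ligand. Median apparent KD per design.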

MS2 coat protein = assay: apparent KD of MS2 coat protein; designed switch direction (-1 OFF switch, 1 ON switch): -1; higher = weaker reporter binding; conditions: Eterna round: R95
Method in brief: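 Transcription of designed RNA switches on Illumina chips was done by stalled E. coli RNA polymerase. SNAP-549-labelled MS2 coat protein was then titrated in doubling steps from 0.7 or 1.5 nM to 3 µM, with steps of 0.8–1.5 h at the lowest and 10–20 min at the highest concentration. The per-design median over clusters of curve-fitted normalised fluorescence is reported as apparent KD.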

[2] = input ligand: theophylline 20 uM
[3] = input ligand: tryptophan 2.4 mM

Sequence	apparent KD of K4 kissing-loop reporter ([1]; input ligand: FMN 200 uM)	apparent KD of K4 kissing-loop reporter ([1]; input ligand: arginine 13.2 mM)	apparent KD of K4 kissing-loop reporter ([1]; input ligand: none)	apparent KD of K4 kissing-loop reporter [1, 2]	apparent KD of K4 kissing-loop reporter [1, 3]	apparent KD of MS2 coat protein (MS2 coat protein; input ligand: FMN 200 uM)	apparent KD of MS2 coat protein (MS2 coat protein; input ligand: microRNA oligo, concentration not stated)	apparent KD of MS2 coat protein (MS2 coat protein; input ligand: none)
CAUACGCAUGGAGGAUAUGGGAUUACUCAUAUUACCCUGUAACAGGUAUCUCAGUGAUGUUGAGACUCAGAAGGCCAUGUGUAUG [Ex FMN B 23]	615 nM	289 nM	348 nM	370 nM	344 nM	–	–	–
UUGGAGUGAUGUUCCAUAUCUUGAGCGGAAGGAGCGGCAAAAGUGCCAGGUAGGUCGCCGCAGAAGGUACCAGUGAUGUUGGAAA [Same State Arginine A GF 3]	132 nM	152 nM	155 nM	156 nM	109 nM	–	–	–
UUGUAAAAGUCGGCCGCCACUCCGGGCCCUAUAAAUGGGCGCAGUGAUGUUGCGGCUAGGCCUCUGAGGACCGGGACUUUAUAGC [Xeismaarbe]	115 nM	85.1 nM	125 nM	66.8 nM	201 nM	–	–	–
UUUAUUAAGACGGCCGCCACUGAUUCAUAGUGAUGUUAUGAUAUAAUUUUAGUGAUUUUGAUUAGCAGGACCGGGUCAAUUAUUA [JR_ExcTryptoB_Sub016]	221 nM	179 nM	196 nM	194 nM	172 nM	–	–	–
ACUGGAAUUGUACUCCAGUGAUGUUGGAGGCAGGAUAUCCAGUAAAGGAGAAGGGCCAUCGCGCUAUUUGGCCGCAGGCGGCCAG [Acela]	147 nM	113 nM	128 nM	177 nM	150 nM	–	–	–
AGUGCACUGUCAGGAUAUAUACAGUGAUGUUGUGUAUGUCAGCAAGUCAAAGACUUGCUGUUCUGUGUAGAAGGGACUGUGUACA [Omei KL FMN B Exc A v3]	911 nM	457 nM	450 nM	467 nM	426 nM	–	–	–
UGGAGUUGACGAAAAGUCAACUCCUGAGAUACCAGUGACGAAAGUCACCCUUGGCAGCUCACUGCCAGUGAUGUUGGUAAAUAAA [#OpenEnded 3]	78.1 nM	92.5 nM	159 nM	568 nM	81.8 nM	–	–	–
AAACAUCACUGGGAGUGAUGUUCUCAGUGACGAGGACCGGUACGGCCGCCACUCGCGAGAGAUAUAAAUGAGUAAUGACAUCAUU [Excl Tryptophan A V2]	276 nM	236 nM	280 nM	258 nM	325 nM	–	–	–
GUUACGCAUGGAAGGAGCGCUCUCAUGCUUAAUAACACAGUGAUGUUGUGAAUUUGCAUAAAGCAGGUAGGUCGCCAUGUGUAAC [Ex Arginine B K4 8]	399 nM	303 nM	359 nM	291 nM	332 nM	–	–	–
AAUUUAUUAACUGAUACCAGACUUAAUAAAUUUUAAAUCACUAGUGAUGUUAGUGAAUAUGUCCCUUGGCAGCAGUAUUUAUUAA [JR_SSTheophyB_Sub023]	132 nM	134 nM	125 nM	121 nM	115 nM	–	–	–
GCAGACACGCAGUGAUGUUGCGAAACGGAAGGAGCGCGUGAAAACGCAGGUAGGUCGCCGAAACAUAAAUUAUAAUUUUGUUUGC [Arginine A K4 13]	244 nM	194 nM	221 nM	240 nM	177 nM	–	–	–
CAUAUCAGAUAAGGAUAUAUGGCUCCUCGAGUCCAGUGAUGUUGGGCAACGUUUCAGUGGUGGAUUAUAGAAGGUAUUCACAGAC [theeternabot_sameState_KL_FMN_B_9]	297 nM	250 nM	276 nM	272 nM	258 nM	–	–	–
UUGUUUUACUGAAGGAGCGGCAAUUGAUACGUAGAUAUAGUGAUGUUAUAUAAGAUAGAGAGCCAGGUAGGUCGCAGAUUUGUUU [ExArgB.U]	221 nM	193 nM	188 nM	183 nM	173 nM	–	–	–
AAUUCAGUGAUGUUGGAAGGCAAGCGGGAUACCAGCGGAGAAUAACGCCCUUGGCAGCCCAUAUAUCCCAAAUAGAUAAUAGUUC [Same State - Theophylline A (Freestyle 4)]	345 nM	220 nM	279 nM	327 nM	337 nM	–	–	–
AAAAUAAACCAGUGAUGUUGGUGUCCAGAUACCAGCGACAAAAGUCGCCCUUGGCAGCUGUGGACGUACAAAAUAAGUACGUCCU [MatMod 1 - Jieux - Same State - Theophylline A]	390 nM	271 nM	393 nM	256 nM	316 nM	–	–	–
GAAGUACAGGCGGCCGCCACUAGUGAUGUUAGUGAUAAAAGAUAAAGUAUAUAUCGGCAUGUAGAUAGGACCGGGCCUGAUGGAG [uiiumullin]	118 nM	296 nM	186 nM	203 nM	298 nM	–	–	–
CGAUACGGAAAUACGUGUCUCUAUUCAGAAGGAGCGUGGUAGUACACAGGUAGGUCGCUGAAAUUUAAACUAGUGAUGUUAGACU [JR_SSArginiA_Sub004]	1330 nM	742 nM	1190 nM	884 nM	905 nM	–	–	–
UCCUGCAAUCUACCACGAAAGUGGAUGGAUACCAGAGUCGAAAGACUCCCUUGGCAGCCAGUGAUGUUGGAGCAGGUAAAAUAAA	670 nM	462 nM	638 nM	514 nM	529 nM	–	–	–
CUAACGGUACGAGUGAUGUUCAGCAAGGAUACCAGCGGACAGUCACGCCCUUGGCAGCCUAGUUUCUACCCGUCGGAAUUUCUUA [theeternabot_sameState_KL_Theo_A_2]	623 nM	366 nM	599 nM	461 nM	527 nM	–	–	–
UAGGAGUGAUGUUCCAUAUCUUGAGCCGAAGGAGCGCCUUUAUAGGCAGGUAGGUCGCGGCAGAAGGUACCAGUGAUGUUGGAAA [Same State Arginine A GF6]	147 nM	147 nM	164 nM	145 nM	135 nM	–	–	–

Sequence	apparent KD of K4 kissing-loop reporter ([1]; input ligand: FMN 200 uM)	apparent KD of K4 kissing-loop reporter ([1]; input ligand: arginine 13.2 mM)	apparent KD of K4 kissing-loop reporter ([1]; input ligand: none)	apparent KD of K4 kissing-loop reporter [1, 2]	apparent KD of K4 kissing-loop reporter [1, 3]	apparent KD of MS2 coat protein (MS2 coat protein; input ligand: FMN 200 uM)	apparent KD of MS2 coat protein (MS2 coat protein; input ligand: microRNA oligo, concentration not stated)	apparent KD of MS2 coat protein (MS2 coat protein; input ligand: none)
ACGUCCCGUUUACUCGUGGGUUAGGUCGAUACCAGUAUUCAAACUUACCCUUGGCAGCGACAUGAGUGAUGUUCAUGUGCGAAGA [KL-XTheo-A5 #analogue]	114 nM	96.2 nM	108 nM	108 nM	104 nM	–	–	–
GUCUCAAAAGAGGCAAGCACUCACGAGGACAAGGAUAUCAUAUCAAUGAGAAGGUGUCCUCGUCCUUAGUGAUGUUAAGGAGUGC [Omei KL FMN A SS E v3]	297 nM	298 nM	357 nM	196 nM	330 nM	–	–	–
GCCAUCAGGUCGCAAGACCUGAUAGCCGAUACCAGCGCGAAGGUGCGCCCUUGGCAGCGGCACCGAGUGAUGUUCGGUCAGGCGG [#2 Same State - Theophylline A Attempt #3 (HarryS)]	490 nM	490 nM	595 nM	291 nM	554 nM	–	–	–
AGAUUCUUUUUUUUAUUUAAGUUUUCAGAAGGAGCGUGGUAGUACACAGGUAGGUCGCUGAAUUUUGGGCUAGUGAUGUUAGUUA [whbob_SS_Arginine_A_sa115]	180 nM	188 nM	221 nM	231 nM	135 nM	–	–	–
UAUUUAUUAACUGAUACCAGACUUAAUGAAUUGUAAAUUACUAGUGAUGUUAGUGAAUCUGUCCCUUGGCAGCAGUAUUUAUUAA [JR_Nu_ExcTheophyB_Sub028]	111 nM	169 nM	128 nM	170 nM	85.1 nM	–	–	–
UAACUCUUGCAGUGAUGUUGCAAGUAAGCUCAGGAUAUCAGGAAACUGAGAAGGGAGUAUCCUGAGCUUCUGCAAGAGCUCAGAA [KL-SSFMN-A5]	227 nM	83.2 nM	362 nM	68.6 nM	97.3 nM	–	–	–
GUAGACGUACCUUCAGUGAUGUUGAAGGAUACCAGAUGUUACCACAUCCCUUGGCAGCCUUGGGAUAACAGUGAGUCGGAAUAUG [Uslediti]	176 nM	136 nM	158 nM	166 nM	142 nM	–	–	–
CUAUGGAAACAUAGGAGUCGGGAAACCGAUACCAGUAUGGAAACAUACCCUUGGCAGCGGAAUGAUUCAACGGAGUGAUGUUCCG [Theophylline A K4 19]	458 nM	366 nM	400 nM	322 nM	366 nM	–	–	–
UAUAUAUGAUGUGAUACCAGUGAAAAGCCAGUGAUGUUGGAAGAACUGGUAUAUAAAUAACACCCUUGGCAGCACAAUCACGUAU [theophylline b exclusion]	271 nM	261 nM	266 nM	382 nM	268 nM	–	–	–
AACCGUGUGGCGGCCGCCACUAGUCUCCAGUGAUGUUGGAGAGAUCACGUAAGUGAUCUCCGACAUAGGACCGGGCCAUAUGGAA [Same State - Tryptophan B (Freestyle 24)]	509 nM	152 nM	295 nM	351 nM	661 nM	–	–	–
CGCCGCAAGGCGAGCGCUCCCACUCCGGAAGGAGCGCCCGAAAGGGCAGGUAGGUCGCCGGAGUGAUGUUCCGGUGGAGGGCUCG [#2 Exclusion - Arginine A Attempt #27 (Inspired by Omei)]	379 nM	185 nM	432 nM	360 nM	529 nM	–	–	–
AAUUGAGUGACGGCCGCCACUAGAGUGAUUUUUUUGUUUGAGUGAUGUUUUGAUGUUUGAUGUUGUAGGACCGGGUUGAGUGAUG [vvrvmullin]	377 nM	348 nM	386 nM	428 nM	291 nM	–	–	–
UUUUAAAUAUCUGAUACCAGAGAAAAUAUAUGUAGUGAUGUUAUAUACAAAAUAAUUAAGCUCCCUUGGCAGCAGUAUUAAUUUU [AstrosExc-TheB#3]	612 nM	658 nM	946 nM	705 nM	541 nM	–	–	–
GCGGACAUUCGCAGUGAUGUUGCGACGGAAGGAGCGCGUGAAAACGCAGGUAGGUCGCCGACAAAAUUAAUUUUAAUGUGUUCGC [Arginine A K4 30]	362 nM	387 nM	394 nM	415 nM	306 nM	–	–	–
CUUGAUGGAAACAUCGAGUAGAUUACUGAUACCAGUAUCGAUAGAUACCCUUGGCAGCAGAAUCAGUAAUCACGAGUGAUGUUCG [Ex Theophylline A K4 7]	535 nM	528 nM	555 nM	518 nM	485 nM	–	–	–
AGACAUAUGACUGUAUGUUUCCAAGGUGUCAAGGAUAUAGUAAACACUAGAAGGUGAGAUCACAGGAGUGAUGUUCGAAAAUGGA [theeternabot_sameState_KL_FMN_A_14]	419 nM	208 nM	237 nM	233 nM	248 nM	–	–	–
CGAGUGAUGUUCGUUUUUUACUCUGUUUGACAGGAUAUGCGGAAACGCAGAAGGGUCACCUUUGAGUUAAACGGAGUUAUUUUUU [Ex FMN A 20]	419 nM	296 nM	366 nM	306 nM	320 nM	–	–	–
AAAGCAGUAUACUGCAAGACCUAUACUGAUACCAGAGUCAAUUGACUCCCUUGGCAGCGGAUCGAGUGAUGUUCGUAAGGUCAAA [AK4.1 SS Theophylline A]	498 nM	555 nM	528 nM	734 nM	617 nM	–	–	–
AGACUACCACACUGUCAAUAGACAGUGUACUAGGAUAUGCUGAUAAGCAGAAGGAGUGAUGUUCCUGGGUAGUCAAUAAAAUAAU [FmnAX 13 U28+G67]	507 nM	388 nM	486 nM	514 nM	404 nM	–	–	–
GCGUAUGAGCAGGAUAUCCCGCGGGAAUCCAUAGGAGAAGGGCUCACAUGAGGAUCACCCAUGUGGUCCAGAAA [Isisan] (puzzle: Exclusion 6)	–	–	–	–	–	20.2 nM	16.1 nM	18 nM
